Test results from PMC12287301, “DSK2-mediated degradation of F-box protein LAO1 and class I TCPs modulates the nitrogen starvation response” (EMBO Reports, 2025).

B2: GST-DSK2B CT (domain or fragment, Arabidopsis thaliana, UniProt Q9SII8 237-551, looked up)
chain: MRNTDRAMSNIESMPEGFNMLRRMYENVQEPLMNATTMSGNAGNNTGSNPFAALLGNQGVTTQGSDASNNSSTPNAGTGTIPNANPLPNPWGATGGQTTAPGRTNVGGDARSPGLGGLGGLGSLGGLGGLGMLGADSPLGATPDASQLSQLLQNPAISQMMQSVFSNPQYMNQLMSLNPQLRSMLDSNPQLREMMQNPDFLRQFSSPEMMQQMMTLQQSLSQNRNTASQDAGQTGAATGNNGGLDLLMNMFGSLGAGGLSGTNQSNVPPEERYATQLQQLQEMGFYDRAENIRALLATNGNVNAAVERLLGSIGQ
notes: DSK2B (AT2G17200), Arabidopsis thaliana, C-terminus (DSK2BCT); the limits 237 to 552 a.a. are printed for the two-hybrid construct DSK2B-CT of the same name; Cloned into EcoRI-digested pGEX-4T-1; also called pGEX-4T-1-DSK2CT; source: E. coli Rosetta (DE3), purified (GST agarose)

How the values were obtained:
Assay in all cases: pull-down; GST pull-down: GST or GST-DSK2BCT incubated with His-tagged TCP in 50 mM Tris-HCl pH 7.5, 150 mM NaCl, 0.5% Triton X-100, 1 mM PMSF at 4 C for 3 h, then GST beads 1 h; blots anti-GST and anti-His
Details in all cases: both partners purified
GST-DSK2B CT = target: B2
His-TCP14 = target: T1, His-TCP14 (Arabidopsis thaliana, UniProt Q93Z00 1-489)
T1 construct: TCP14 (AT3G47620), Arabidopsis thaliana; Cloned into BamHI/SalI-digested pET32a; also called recombinant His-TCP14; pET32a-TCP14; source: E. coli Rosetta (DE3), purified (Ni-NTA agarose)
T1 sequence (Q93Z00 whole entry): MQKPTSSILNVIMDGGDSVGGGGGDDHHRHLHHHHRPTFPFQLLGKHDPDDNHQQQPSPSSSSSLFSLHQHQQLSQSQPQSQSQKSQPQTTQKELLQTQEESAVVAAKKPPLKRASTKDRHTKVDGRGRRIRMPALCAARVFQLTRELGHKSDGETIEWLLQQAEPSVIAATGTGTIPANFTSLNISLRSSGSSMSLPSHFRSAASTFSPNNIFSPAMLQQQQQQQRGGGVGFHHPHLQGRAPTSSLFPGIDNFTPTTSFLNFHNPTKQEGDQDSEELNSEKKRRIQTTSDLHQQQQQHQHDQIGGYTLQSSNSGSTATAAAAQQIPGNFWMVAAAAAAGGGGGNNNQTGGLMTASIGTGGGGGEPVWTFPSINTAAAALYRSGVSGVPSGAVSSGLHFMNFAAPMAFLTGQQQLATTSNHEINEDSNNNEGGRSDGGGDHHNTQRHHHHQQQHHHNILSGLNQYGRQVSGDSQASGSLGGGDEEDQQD

His-TCP15 = target: T2, His-TCP15 (Arabidopsis thaliana, UniProt Q9C9L2 1-325)
T2 construct: TCP15 (AT1G69690), Arabidopsis thaliana; Cloned into BamHI/SalI-digested pET32a; also called recombinant His-TCP15; pET32a-TCP15; source: E. coli Rosetta (DE3), purified (Ni-NTA agarose)

B1: His-TCP7 (natural protein)
chain: not shown
notes: TCP7 (AT5G23280), Arabidopsis thaliana; Cloned into BamHI/SalI-digested pET32a; also called recombinant His-TCP7; pET32a-TCP7; source: E. coli Rosetta (DE3), purified (Ni-NTA agarose)
binding result (GST-DSK2B CT): binds

B2
binding result (His-TCP14): binds | binding result (His-TCP15): binds

B3: His-TCP21 (natural protein)
chain: not shown
notes: TCP21 (AT5G08330), Arabidopsis thaliana; Cloned into BamHI/SalI-digested pET32a; also called recombinant His-TCP21; pET32a-TCP21; source: E. coli Rosetta (DE3), purified (Ni-NTA agarose)
binding result (GST-DSK2B CT): binds
